Like-named read-outs stand apart in the source and are kept apart here. Where no end group is shown, it is not given here. [ ]: non-standard residue; d: D form. Nle = CCCC[C@H](N)C(=O)O
Biological target: T1, CCR2 (Homo sapiens, UniProt P41597)
T1 construct: endogenous in cells; host or cells: THP-1
T1 sequence (P41597 1-360 isoform P41597-2): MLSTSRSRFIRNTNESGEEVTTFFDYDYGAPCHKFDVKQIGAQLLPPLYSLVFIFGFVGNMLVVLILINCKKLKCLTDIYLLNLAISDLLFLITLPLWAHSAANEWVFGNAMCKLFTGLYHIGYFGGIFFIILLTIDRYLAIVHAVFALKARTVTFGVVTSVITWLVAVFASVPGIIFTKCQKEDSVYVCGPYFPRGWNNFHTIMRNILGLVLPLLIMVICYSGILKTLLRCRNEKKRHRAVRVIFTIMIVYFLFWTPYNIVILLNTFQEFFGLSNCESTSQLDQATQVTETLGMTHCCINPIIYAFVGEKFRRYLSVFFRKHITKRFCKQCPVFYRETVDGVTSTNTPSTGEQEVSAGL
Test: CCR2 inhibitory potency assay, calcium flux method, THP-1 cells stimulated with 100 nM CCL2
Type: cell-based
Protocol: CCR2 inhibitory potency assay was determined using the calcium flux method.
Ca^2+ flux measurements were performed using an FDSS micro-cell device ([…]). On the day of the experiment, THP-1 cells were seeded 20000 cells/well) to wells of black-walled clear-bottom 384-well plates.
THP-1 cells were loaded with a calcium-sensitive fluorescent dye (Screen Quest™ Fluo-8 No Wash Calcium Assay Kit, AAT Bioquest) according to the manufacturer's instructions, then a first addition of either test sample dilutions or vehicle alone were added. 5 minutes later, cells were stimulated with 100 nM CCL2.

[1] = Table 3, CCR2 inhibition, read-out: mean IC50
[2] = Table 4, CCR2 inhibition, read-out: mean IC50

Row | Molecule | IC50 [1] [nM] | IC50 [2] [nM] | further results
1 | CCL2 variant, N-terminal FP(Nle)DGWAPVT (SEQ ID NO: 10), human CCL2 Met64Nle core [CCL2-M64Nle-2P6] | 2.2 |  | 
2 | CCL2 variant, N-terminal FTNPTWDTGT (SEQ ID NO: 96), human CCL2 11-76 Met64Nle core (not fully specified (C-terminus); also: followed C-terminally by human CCL2 11-76 core with Met64Nle) [3P21-CCL2] |  | 1.28 | 
3 | CCL2 variant, N-terminal (Nle)PDWNRAPVT (SEQ ID NO: 35), human CCL2 Met64Nle core [CCL2-M64Nle-NGS-MEO-1] | 167 |  | 
4 | CCL2 variant, N-terminal FTNPTWDQFT (SEQ ID NO: 86), human CCL2 11-76 Met64Nle core [3P11-CCL2] |  | 0.703 | 
5 | CCL2 variant, N-terminal FTNPTWSQGV (SEQ ID NO: 94), human CCL2 11-76 Met64Nle core (not fully specified (C-terminus); also: followed C-terminally by human CCL2 11-76 core with Met64Nle) [3P19-CCL2] |  | 0.914 | 
6 | CCL2 variant, N-terminal FTNPTWAPLQ (SEQ ID NO: 83), human CCL2 11-76 Met64Nle core [3P8-CCL2] |  | 0.892 | 
7 | CCL2 variant, N-terminal FP(Nle)DGWHPLV (SEQ ID NO: 132), human CCL2 11-76 Met64Nle core (FP[Nle]DGWHPLV; also: followed by human CCL2 11-76 core with Met64Nle) [4P18-CCL2] |  | 0.585 | 
8 | CCL2 variant, N-terminal FTNPTWDAQV (SEQ ID NO: 77), human CCL2 11-76 Met64Nle core [3P2-CCL2] |  | 0.883 | 
9 | CCL2 variant, N-terminal FP(Nle)DGWGPGV (SEQ ID NO: 144), human CCL2 11-76 Met64Nle core (FP[Nle]DGWGPGV; also: followed by human CCL2 11-76 core with Met64Nle) [4P24-CCL2] |  | 1.65 | 
10 | CC(=O)N[C@@H]1C[C@H](NC(C)(C)C)CC[C@@H]1N1CC[C@H](Nc2ncnc3cc(C(C)(C)C)nn23)C1=O [BMS-813160, reference compound] |  |  | IC50 (FIG. 5, calcium flux, THP-1 cells, read-out: IC50 (compiled data from four experiments, mean pIC50) (converted)): 9.8 nM; fold less potent than 1P2-CCL2 (compiled data from four experiments): 5.76 fold

Continued, in another order:

Row | IC50 [1] [nM] | IC50 [2] [nM] | Molecule | further results
11 | 50.2 |  | CCL2 variant, N-terminal SPSYTRAPVT (SEQ ID NO: 31), human CCL2 Met64Nle core [CCL2-M64Nle-2P7] | 
12 |  | 0.594 | CCL2 variant, N-terminal FTNPTWDAVT (SEQ ID NO: 89), human CCL2 11-76 Met64Nle core [3P14-CCL2] | 
13 | 32.4 |  | CCL2 variant, N-terminal MYGLGWNAPVT (SEQ ID NO: 23), human CCL2 Met64Nle core [CCL2-M64Nle-1P19] | 
14 | 15.3 |  | CCL2 variant, N-terminal VPDWSQAPVT (SEQ ID NO: 18), human CCL2 Met64Nle core [CCL2-M64Nle-1P22] | 
15 |  | 0.646 | CCL2 variant, N-terminal FTNPTWDTQV (SEQ ID NO: 79), human CCL2 11-76 Met64Nle core (not fully specified (C-terminus); also: followed C-terminally by human CCL2 11-76 core with Met64Nle) [3P4-CCL2] | 
16 |  | 65.8 | CCL2 variant, N-terminal FP(Nle)DGWRPRQ (SEQ ID NO: 108), human CCL2 11-76 Met64Nle core (FP[Nle]DGWRPRQ; also: fused to human CCL2 11-76 core with Met64Nle) [4P5-CCL2] | 
17 | 5.83 |  | CCL2 variant, N-terminal RPYLWKAPVT (SEQ ID NO: 12), human CCL2 Met64Nle core [CCL2-M64Nle-2P5] | 
18 |  | 0.534 | CCL2 variant, N-terminal FP(Nle)DGWQGGV (SEQ ID NO: 122), human CCL2 11-76 Met64Nle core (FP[Nle]DGWQGGV; also: followed by human CCL2 11-76 core with Met64Nle) [4P13-CCL2] | 
